Data: patent publication US20070104719A1, “Caspase Activated Prodrugs Therapy” (Genentech, Inc., priority 2000, published 2007)
Starred links: 1 amine or outer side, 2 acyl side, 3 side chain; linkers in the order of their positions; H or OH if unused. Non-standard residues stand in square brackets, D forms with d. Residues, ends and D or L forms follow the SMILES beside them. *: point of attachment. Doxorubicin(3'-N) = COc1cccc2c1C(=O)c1c(O)c3c(c(O)c1C2=O)C[C@@](O)(C(=O)CO)C[C@@H]3O[C@H]1C[C@H](N*)[C@H](O)[C@H](C)O1; PABC = O=C(OCc1ccc(N[*:1])cc1)[*:2]

Key:
[1] = system: MCF7 breast carcinoma cells; experiment: Cellular accumulation of doxorubicin and Ac-DEVD-PABC-doxorubicin (fluorescence); format: cell-based, human; details: 10 μM, 0 to 2 h at 37° C.
Method: (§1) FIG. 1. Cellular accumulation of caspase cleavable prodrug Ac-DEVD-PABC-Doxorubicin in SK-BR-3 and MCF7 cells. Uptake of doxorubicin was estimated from a standard curve prepared using known quantities of doxorubicin that were added to the previously untreated cells.
(§2) SK-BR-3 and MCF7 breast carcinoma cells (American Type Culture Collection (ATCC), Rockville, Md.) were cultured in Dulbecco's modified Eagle's medium:Ham's nutrient F-12 (50:50) supplemented with […] glutamine, 100 units/mL penicillin, […] streptomycin (Gibco BRL, Grand Island, N.Y.), and 10% (w/v) bovine fetal serum (Hyclone, Logan, Utah) (cell media) at 37° C., 5% CO2. Adherantly growing cells were detached by treatment with phosphate-buffered saline containing 0.05% trypsin, 0.6 mM EDTA (5 min) and then resuspended at 10^6 cells per mL in fresh cell media. Cells were either used directly (“untreated”) or supplemented with doxorubicin or Ac-DEVD-PABC-doxorubicin into a final concentration of 10 μM. […] Fluorescence measurements were then undertaken using a fluorescent plate reader (Fluoroskan, Helsinki, Finland) with absorption and emission wavelengths of 485 and 590 nm respectively. Uptake of doxorubicin was estimated from a standard curve prepared using known quantities of doxorubicin that were added to the previously untreated cells.

[2] = system: SK-BR-3 breast carcinoma cells; experiment: as above; format: cell-based, human; details: SK-BR-3 cells, 10 μM, 0 to 2 h at 37° C.
Method: as §1, §2

granzyme B = granzyme B (Homo sapiens, UniProt P10144); experiment: Cleavage of Ac-DEVD-pna by granzyme B; format: biochemical
From the text: (§3) The most favorable substrates for caspases 2, 3 and 7 are DEHD (SEQ ID NO:8), DEVD (SEQ ID NO:3) and DEVD (SEQ ID NO:3) respectively. These sequences are very poor substrates for granzyme B which has the preferred substrate IEPD (SEQ ID NO:13) (Thornberry et al., (1997) supra) and for proinflammatory caspases (caspases 1, 4, 5, 11, 12, 13) which have a preference for a large hydrophobic residue at S4 (caspase 1 WEHD (SEQ ID NO:6), caspase 4 (W/L)EHD, caspase 5 (W/L)EHD).

[3] = biological target: T1, recombinant commercial caspase 3 (Homo sapiens, UniProt P42574); experiment: Hydrolysis of Ac-DEVD-pna by caspase 3; format: biochemical
T1 construct: purchased
T1 sequence (P42574 29-175 limits assumed): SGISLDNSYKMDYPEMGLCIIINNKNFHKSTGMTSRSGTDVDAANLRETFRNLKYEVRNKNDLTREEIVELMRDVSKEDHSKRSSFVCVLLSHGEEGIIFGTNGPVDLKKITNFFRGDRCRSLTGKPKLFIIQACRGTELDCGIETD
T1 sequence (P42574 176-277 limits assumed): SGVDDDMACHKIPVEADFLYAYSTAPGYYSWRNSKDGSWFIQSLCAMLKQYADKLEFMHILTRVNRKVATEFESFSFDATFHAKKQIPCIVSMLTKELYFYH
From the text: as §3

[4] = biological target: T2, recombinant human caspase 3 (Homo sapiens, UniProt P42574); experiment: Activation of Ac-DEVD-PABC-taxol by caspase 3 (HPLC); format: biochemical
T2 construct: purchased Calbiochem
T2 sequence (P42574 29-175 limits assumed): T1 sequence (P42574 29-175 limits assumed)
T2 sequence (P42574 176-277 limits assumed): T1 sequence (P42574 176-277 limits assumed)
Method: Ac-DEVD-PABC-taxol (35 μM) was incubated with 1 ng recombinant human caspase 3 (Calbiochem) in the presence or absence of the caspase 3 inhibitor, Z-DEVD-FMK (400 μM) (Calbiochem) in phosphate-buffered saline containing 5% (v/v) dimethyl sulfoxide and 45 mM DTT in a total reaction volume of 700 μL. A control reaction was performed in which caspase 3 and inhibitor were omitted. Reactions were incubated for 0 to 2 h at 37° C. and then frozen in dry ice. Reactions were then analyzed by reverse phase HPLC using a Microsorb-MV C18 reverse-phase column (4.6 mm internal diameter×250 mm length, 5 μm particle size, 100 Å pore size) (Rainin) under isocratic conditions. 0.1% (v/v) TFA, 46% (v/v) acetonitrile at a now rate of 1.5 mL/min whilst monitoring the absorbance at 254 nm. The retention times for taxol and Ac-DEVD-PABC-taxol were 13.3 min 10.4 min, respectively.

granzyme B, sequence (P10144 21-247, species assumed): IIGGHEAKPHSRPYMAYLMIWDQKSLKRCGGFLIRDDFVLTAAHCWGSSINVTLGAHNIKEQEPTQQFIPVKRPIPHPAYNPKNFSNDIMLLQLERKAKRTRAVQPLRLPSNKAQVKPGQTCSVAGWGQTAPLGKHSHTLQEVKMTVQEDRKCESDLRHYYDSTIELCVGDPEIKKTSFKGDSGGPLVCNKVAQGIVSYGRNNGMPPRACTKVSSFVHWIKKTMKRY

Compound: COc1cccc2c1C(=O)c1c(O)c3c(c(O)c1C2=O)C[C@@](O)(C(=O)CO)C[C@@H]3O[C@H]1C[C@H](NC(=O)OCc2ccc(NC(=O)[C@H](CC(=O)O)NC(=O)[C@@H](NC(=O)[C@H](CCC(=O)O)NC(=O)[C@H](CC(=O)O)NC(C)=O)C(C)C)cc2)[C@H](O)[C@H](C)O1 [Ac-DEVD-PABC-Doxorubicin, Ac-DEVD-PABC-doxorubicin] (Ac-DEVD[PABC]-{Doxorubicin(3'-N)})
- accumulation inside cells [1]: did not
- accumulation inside cells [2]: did not

Compound: acetyl-L-Asp-L-Glu-L-Val-L-Asp-p-nitroanilide [Ac-DEVD-pna]
- cleavage by granzyme B (granzyme B): no detectable cleavage
- hydrolysis by caspase 3 [3]: readily hydrolyzed

Compound: Ac-DEVD-PABC-paclitaxel [Ac-DEVD-PABC-taxol]
- activation by caspase 3 (conversion to taxol) ([4]; 35 μM prodrug, 1 ng caspase 3): efficiently activated
- Conversion (%) ([4]; Caspase 3 + inhibitor (Z-DEVD-FMK 400 μM), incubation time 0 min): 0%
- Conversion (%) ([4]; Caspase 3 + inhibitor (Z-DEVD-FMK 400 μM), incubation time 30 min): 0%
- Conversion (%) ([4]; Caspase 3 + inhibitor (Z-DEVD-FMK 400 μM), incubation time 120 min): 0%
- Conversion (%) ([4]; Caspase 3, incubation time 0 min): 0%
- Conversion (%) ([4]; Caspase 3, incubation time 30 min): 65%
- Conversion (%) ([4]; Caspase 3, incubation time 120 min): 100%
